Reference: patent US20110311550A1 (Scripps Research, published 2011)

How the values were obtained:
[1] = molecular target: T1, HCV E1E2 complex, isolate H77 (genotype 1a) (hepatitis C virus genotype 1a, isolate …, UniProt P27958 192-383; P27958 384-746); assay: Fab screen after panning on antibody-masked E1E2 (H77)
[2] = molecular target: T1, HCV E1E2 complex, isolate H77 (genotype …); assay: apparent affinity: half-maximal binding, ELISA on lectin-captured E1E2
[3] = molecular target: HCV E1E2 complex, isolate HCV-1 (genotype 1a), vaccinia-expressed (hepatitis C virus genotype 1a, isolate …, UniProt P26664 192-383; P26664 384-746); assay: as above
[4] = molecular target: T1, HCV E1E2 complex, isolate H77 (genotype …); assay: ELISA, mAb with E1E2 (H77), then CD81-LEL plate
[5] = molecular target: T2, HCV E1E2 complex, isolate H77 (genotype 1a) (hepatitis C virus genotype 1a, isolate …, UniProt P27958 192-383; P27958 384-746); assay: competition ELISA on lectin-captured H77 E1E2; competitor: Fab P6
T2 construct: also called E1E2 (H77); Folded E1E2

[6] = molecular target: T2, HCV E1E2 complex, isolate H77 (genotype …); assay: competition ELISA on lectin-captured H77 E1E2; competitor: Fab U1
[7] = molecular target: T2, HCV E1E2 complex, isolate H77 (genotype …); assay: competition ELISA on lectin-captured H77 E1E2; competitor: Fab P5
[8] = molecular target: T2, HCV E1E2 complex, isolate H77 (genotype …); assay: competition ELISA on lectin-captured H77 E1E2; competitor: Fab R1
[9] = molecular target: T2, HCV E1E2 complex, isolate H77 (genotype …); assay: competition ELISA on lectin-captured H77 E1E2; competitor: Fab T1
[10] = molecular target: T2, HCV E1E2 complex, isolate H77 (genotype …); assay: competition ELISA on lectin-captured H77 E1E2; competitor: Fab Q2
[11] = molecular target: T2, HCV E1E2 complex, isolate H77 (genotype …); assay: competition ELISA on lectin-captured H77 E1E2; competitor: Fab V1
[12] = molecular target: T2, HCV E1E2 complex, isolate H77 (genotype …); assay: competition ELISA on lectin-captured H77 E1E2; competitor: Fab Q1
[13] = molecular target: T2, HCV E1E2 complex, isolate H77 (genotype …); assay: competition ELISA on lectin-captured H77 E1E2; competitor: Fab S1

Row | Binder | binding result [1] | EC50 [2] [nM] | EC50 [3] [nM] | IC50 [4] [nM] | residual binding [5] [%] | residual binding [6] [%] | residual binding [7] [%] | residual binding [8] [%] | residual binding [9] [%] | residual binding [10] [%] | residual binding [11] [%] | residual binding [12] [%] | residual binding [13] [%]
1 | Fab B7 (Fab, V domains shown) VH: VQLLEQSGAEVKKPGSSVKVSCRASGSPYSSYTITWVRQAPGQGLEWMGGIILMTGKANYAQKFQGRVTITADRATATAYMEMSSLTSDDTAIYYCARDPYVYAGDDVWSLSRWGQGTPVIVSS VL: not shown | binds |  |  |  |  |  |  |  |  |  |  |  | 
2 | MAb AR1A (IgG1 from Fab B2) (antibody, V domains shown, also called ARIA) VH: LEQSGAEVKKPGSSVKVSCRASGSPYSSYTITWVRQAPGQGLEWMGGIILMTGKANYAQKFQGRVTITADRATATAYMEMSSLTSDDTAIYYCARDPYVYAGDDVRSLSRWGQGTPVIVSS VL: not shown |  | 3.8 | 2.6 | 5.7 |  |  |  |  |  |  |  |  | 
3 | MAb AR1A (antibody, V domains shown, also called IgG1 of Fab B2) VH: LEQSGAEVKKPGSSVKVSCRASGSPYSSYTITWVRQAPGQGLEWMGGIILMTGKANYAQKFQGRVTITADRATATAYMEMSSLTSDDTAIYYCARDPYVYAGDDVRSLSRWGQGTPVIVSS VL: not shown |  |  |  |  | 82 | 55 | 87 | 100 | 80 | 78 | 58 | 79 | 69
4 | MAb AR2A (antibody, V domains shown, also called IgG1 of Fab G) VH: LEQSGAEMKKPGASLKVSCKTSGYTFDDYGVTWVRQAPGQGLEWMGWISAYSGNTFYARKFQGRVTMTTDPSTRTAYMELRSLRSDDTAVYFCARDRGLAINGVVFPYFGLDVWGQGTTVTVSS VL: ELTQSPVSLPVTPGEPASISCRSSQSLLHSNGNHYLDWYLQKPGQSPQLLMYLGSNRASGVPDRFSGSGSGTDFTLKISRVEAEDVGVYYCMQGLQTPWTFGQGTKVEIKR |  |  |  |  | 76 | 132 | 73 | 75 | 93 | 72 | 79 | 75 | 79
5 | MAb AR1B (antibody, V domains shown, also called IgG1 of Fab D1) VH: LESGGGLVQPGGSLRLSCEASGYYFSSFAMSWVRQTPGKGLEWVSSIAGGTLGRTSYRDSVKGRFTISRDNSKNTVFLHMNNLRPEDTAVYYCAKDPLLFAGGPNWFDHWGQGTLVTVSS VL: not shown |  |  |  |  | 95 | 103 | 95 | 101 | 102 | 96 | 102 | 97 | 101
6 | Fab L7 (Fab, V domains shown) VH: VQLLEQSGAEVKKPGSSVKVTCKVPGDTFRSYVITWVRQAPGQGLEWLGGILPFFGTTNLAQKFQGRVTLTADESTTTAYMELSSLRAEDTAVYYCAKAGDLAFGGVIAGGVPHLSHFDPWGQGTLVTVSS VL: ELTQSPGTLSLSPGERATLSCRASQSVPSSYLGWYQQKPGQAPRLLIYGASSRATGIPERFSGSGSGTDFTLTISRLEPEDFAVYYCQQYGSSLSFGQGTKVDLKR | binds |  |  |  |  |  |  |  |  |  |  |  | 
7 | MAb AR3C (IgG1 from Fab H3) (antibody, V domains shown) VH: LEQSGAEVKKPGSSVKVSCETSGGTLDNYALNWVRQAPGQGLEWIGGVVPLFGTTRNAQKFQGRVTISDDKSTGTGHMELRSLRSEDTAVYYCVRSVTPRYCGGGFCYGEFDYWGQGTLVTVSS VL: ELTQSPATLSVSPGERATLSCRASQSVSSNLAWYQQKPGQAPRLLIYGASTRATGIPARFSGSGSGTEFTLTVSRLEPEDSAVYFCQQYYRSPLTFGGGTKVEIKR |  | 2.3 | 1.4 | 2 |  |  |  |  |  |  |  |  | 
8 | MAb AR3C (antibody, V domains shown, also called IgG1 of Fab H3) VH: LEQSGAEVKKPGSSVKVSCETSGGTLDNYALNWVRQAPGQGLEWIGGVVPLFGTTRNAQKFQGRVTISDDKSTGTGHMELRSLRSEDTAVYYCVRSVTPRYCGGGFCYGEFDYWGQGTLVTVSS VL: ELTQSPATLSVSPGERATLSCRASQSVSSNLAWYQQKPGQAPRLLIYGASTRATGIPARFSGSGSGTEFTLTVSRLEPEDSAVYFCQQYYRSPLTFGGGTKVEIKR |  |  |  |  | 103 |  | 117 | 163 | 105 | 75 | 82 | 97 | 149
